System: arNOX
Assay: arNOX assay: ferricytochrome c reduction (superoxide production) in sera
Assay type: biochemical, human
Conditions: for Rate of reduction of ferricytochrome c, +Proteinase K: pooled serum
Excerpt: Reduction of ferric cytochrome c by superoxide was employed as a standard measure of superoxide formation (Mayo, L. A. and Cumutte, J. (1990) Meth. Enzyme. 186, 567-575. 7. Butler, J, Koppenol, W. H. and Margollash, E. (1982) J. Biol. Chem. 257, 10747).
Assays of ferric cytochrome c reduction in sera compared 53 samples from young (20 to 40 y) and 65 samples from aged (80 to 100) individuals. […]
Measurement of arNOX activity based on ferricytochrome c reduction as a measure of superoxide production were taken. The rate of reduction of ferricytochrome c was determined from the increase in absorbance at 550 nm with 540 nm as reference. This is a widely accepted method when coupled to superoxide dismutase inhibition for the measurement of superoxide generation. The assay consists of 150 μl (2 mg/ml) of oxidized ferricytochrome c solution and 150 μl serum or 40 μl buffy coats in PBSG buffer (8.06 g NaCl, 0.2 g KCl, 0.18 g Na2HPO4, 0.26 g KH2PO4, 0.13 g CaCl2, 0.1 g MgCl2, 1.35 g glucose dissolved in 1000 ml deionized water, adjusted to pH 7.4, filtered and stored at 4° C.). Rates were determined using a SLM Aminco DW-2000 spectrophotometer (Milton Roy, Rochester, N.Y., USA) in the dual wave length mode of operation with continuous measurements over 1 min every 1.5 min. After 45 min, test compound was added and the reaction was continued for 45 min. A millimolar extinction coefficient of 19.1 cm^−1 was used for reduced ferricytochrome c. (D. M. Morré, F. Guo and D. J. Morré, 2003, Mol. Cell. Biochem. 254: […]).

Rate of reduction of ferricytochrome c, +Proteinase K (35-45 males): 0.27 ± 0.16 nmoles min^−1 mi serum^−1
Rate of reduction of ferricytochrome c, +Proteinase K (75-85 females): 1.0 ± 0.18 nmoles min^−1 mi serum^−1
Rate of reduction of ferricytochrome c, +Proteinase K (75-85 males): 0.72 ± 0.14 nmoles min^−1 mi serum^−1
Rate of reduction of ferricytochrome c, +Proteinase K (<35 y females): 0.26 ± 0.17 nmoles min^−1 mi serum^−1
Rate of reduction of ferricytochrome c, +Proteinase K (>90 females): 0.94 ± 0.24 nmoles min^−1 mi serum^−1
change in the rate of arNOX following proteinase K digestion (sera): no significant decrease
Superoxide production (reduction of ferricytochrome c), without superoxide dismutase (sera of aged (80-98 y) individuals, after proteinase K, n = 10): 0.6 ± 0.2 Nmoles/min/mi/sera
B1: Proteinase K: protease used to digest sera (protein, UniProt P06873 106-384, looked up)
Proteinase K: AAQTNAPWGLARISSTSPGTSTYYYDESAGQGSCVYVIDTGIEASHPEFEGRAQMVKTYYYSSRDGNGHGTHCAGTVGSRTYGVAKKTQLFGVKVLDDNGSGQYSTIIAGMDFVASDKNNRNCPKGVVASLSLGGGYSSSVNSAAARLQSSGVMVAVAAGNNNADARNYSPASEPSVCTVGASDRYDRRSSFSNYGSVLDIFGPGTSILSTWIGGSTRSISGTSMATPHVAGLAAYLMTLGKTTAASACRYIADTANKGDLSNIPFGTVNLLAYNNYQA

Reference: patent US20080175935A1, “Method to Treat Skin Conditions with Narcissus Tazetta Bulb Extract” (NuSkin International, Inc., priority 2004, published 2008)
